B1: IQUB (parent)
chain: CRNCINLQNEAQKRESFLKYKCLL

Variants of: B1
Assay: protein stability index of a GFP-peptide fusion (GPS, HEK-293T) (PSI 1-6); higher = more stable
Conditions: c terminus: a fixed tail appended
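Note: lentivirally expressed fusions sorted by FACS into six bins by GFP to DsRed ratio, PSI derived from sequencing read proportions per bin multiplied by bin number.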

Variant	protein stability index
IRNCINLQNEAQKRESFLKYKCLL [C1I]	1.41
KRNCINLQNEAQKRESFLKYKCLL [C1K]	1.9
LRNCINLQNEAQKRESFLKYKCLL [C1L]	1.72
MRNCINLQNEAQKRESFLKYKCLL [C1M]	1.91
NRNCINLQNEAQKRESFLKYKCLL [C1N]	2.33
PRNCINLQNEAQKRESFLKYKCLL [C1P]	2.19
QRNCINLQNEAQKRESFLKYKCLL [C1Q]	2.01
RRNCINLQNEAQKRESFLKYKCLL [C1R]	1.94
SRNCINLQNEAQKRESFLKYKCLL [C1S]	1.9
TRNCINLQNEAQKRESFLKYKCLL [C1T]	2.66
VRNCINLQNEAQKRESFLKYKCLL [C1V]	2.78
WRNCINLQNEAQKRESFLKYKCLL [C1W]	2.08
YRNCINLQNEAQKRESFLKYKCLL [C1Y]	1.86
CANCINLQNEAQKRESFLKYKCLL [R2A]	1.95
CCNCINLQNEAQKRESFLKYKCLL [R2C]	1.66
CDNCINLQNEAQKRESFLKYKCLL [R2D]	2.3
CENCINLQNEAQKRESFLKYKCLL [R2E]	2.23
CFNCINLQNEAQKRESFLKYKCLL [R2F]	1.89
CGNCINLQNEAQKRESFLKYKCLL [R2G]	1.28
CHNCINLQNEAQKRESFLKYKCLL [R2H]	2.56
CINCINLQNEAQKRESFLKYKCLL [R2I]	1.45
CKNCINLQNEAQKRESFLKYKCLL [R2K]	1.92
CLNCINLQNEAQKRESFLKYKCLL [R2L]	1.93
CMNCINLQNEAQKRESFLKYKCLL [R2M]	1.89

Variant	protein stability index
CNNCINLQNEAQKRESFLKYKCLL [R2N]	2.22
CPNCINLQNEAQKRESFLKYKCLL [R2P]	2.25
CQNCINLQNEAQKRESFLKYKCLL [R2Q]	1.53
CSNCINLQNEAQKRESFLKYKCLL [R2S]	1.86
CTNCINLQNEAQKRESFLKYKCLL [R2T]	1.93
CVNCINLQNEAQKRESFLKYKCLL [R2V]	1.41
CWNCINLQNEAQKRESFLKYKCLL [R2W]	1.98
CYNCINLQNEAQKRESFLKYKCLL [R2Y]	1.64
CRACINLQNEAQKRESFLKYKCLL [N3A]	2.14
CRCCINLQNEAQKRESFLKYKCLL [N3C]	1.61
CRDCINLQNEAQKRESFLKYKCLL [N3D]	1.92
CRECINLQNEAQKRESFLKYKCLL [N3E]	1.37
CRFCINLQNEAQKRESFLKYKCLL [N3F]	1.83
CRGCINLQNEAQKRESFLKYKCLL [N3G]	1.76
CRHCINLQNEAQKRESFLKYKCLL [N3H]	1.99
CRICINLQNEAQKRESFLKYKCLL [N3I]	2.71
CRKCINLQNEAQKRESFLKYKCLL [N3K]	1.9
CRLCINLQNEAQKRESFLKYKCLL [N3L]	1.91
CRMCINLQNEAQKRESFLKYKCLL [N3M]	1.08
CRPCINLQNEAQKRESFLKYKCLL [N3P]	1.92
CRQCINLQNEAQKRESFLKYKCLL [N3Q]	2.7
CRRCINLQNEAQKRESFLKYKCLL [N3R]	1.76
CRSCINLQNEAQKRESFLKYKCLL [N3S]	2.59
CRTCINLQNEAQKRESFLKYKCLL [N3T]	3.29

Variant	protein stability index
CRVCINLQNEAQKRESFLKYKCLL [N3V]	1.7
CRWCINLQNEAQKRESFLKYKCLL [N3W]	1.68
CRYCINLQNEAQKRESFLKYKCLL [N3Y]	1.76
CRNAINLQNEAQKRESFLKYKCLL [C4A]	2.02
CRNDINLQNEAQKRESFLKYKCLL [C4D]	1.98
CRNEINLQNEAQKRESFLKYKCLL [C4E]	1.41
CRNFINLQNEAQKRESFLKYKCLL [C4F]	2.15
CRNGINLQNEAQKRESFLKYKCLL [C4G]	1.85
CRNHINLQNEAQKRESFLKYKCLL [C4H]	1.74
CRNIINLQNEAQKRESFLKYKCLL [C4I]	2.28
CRNKINLQNEAQKRESFLKYKCLL [C4K]	2.15
CRNLINLQNEAQKRESFLKYKCLL [C4L]	1.53
CRNMINLQNEAQKRESFLKYKCLL [C4M]	2.12
CRNNINLQNEAQKRESFLKYKCLL [C4N]	1.93
CRNPINLQNEAQKRESFLKYKCLL [C4P]	2
CRNQINLQNEAQKRESFLKYKCLL [C4Q]	2.13
CRNRINLQNEAQKRESFLKYKCLL [C4R]	3.13
CRNSINLQNEAQKRESFLKYKCLL [C4S]	1.51
CRNTINLQNEAQKRESFLKYKCLL [C4T]	1.69
CRNVINLQNEAQKRESFLKYKCLL [C4V]	1.92
CRNWINLQNEAQKRESFLKYKCLL [C4W]	1.41
CRNYINLQNEAQKRESFLKYKCLL [C4Y]	2.51
CRNCANLQNEAQKRESFLKYKCLL [I5A]	1.79
CRNCCNLQNEAQKRESFLKYKCLL [I5C]	1.64

Variant	protein stability index
CRNCDNLQNEAQKRESFLKYKCLL [I5D]	2.05
CRNCENLQNEAQKRESFLKYKCLL [I5E]	2.53
CRNCGNLQNEAQKRESFLKYKCLL [I5G]	1.83
CRNCHNLQNEAQKRESFLKYKCLL [I5H]	1.8
CRNCKNLQNEAQKRESFLKYKCLL [I5K]	1.45
CRNCLNLQNEAQKRESFLKYKCLL [I5L]	2.16
CRNCMNLQNEAQKRESFLKYKCLL [I5M]	1.8
CRNCNNLQNEAQKRESFLKYKCLL [I5N]	2.33
CRNCPNLQNEAQKRESFLKYKCLL [I5P]	2.04
CRNCQNLQNEAQKRESFLKYKCLL [I5Q]	1.97
CRNCRNLQNEAQKRESFLKYKCLL [I5R]	1.88
CRNCSNLQNEAQKRESFLKYKCLL [I5S]	1.89
CRNCTNLQNEAQKRESFLKYKCLL [I5T]	1.71
CRNCVNLQNEAQKRESFLKYKCLL [I5V]	1.61
CRNCWNLQNEAQKRESFLKYKCLL [I5W]	1.4
CRNCYNLQNEAQKRESFLKYKCLL [I5Y]	2.21
CRNCIALQNEAQKRESFLKYKCLL [N6A]	1.77
CRNCICLQNEAQKRESFLKYKCLL [N6C]	1.76
CRNCIDLQNEAQKRESFLKYKCLL [N6D]	1.47
CRNCIELQNEAQKRESFLKYKCLL [N6E]	1.7
CRNCIFLQNEAQKRESFLKYKCLL [N6F]	2.2
CRNCIGLQNEAQKRESFLKYKCLL [N6G]	1.91
